# Experimental data reported in patent US20100137208A1, “INTRATUMORALLY ADMINISTERED LACTOFERRIN IN THE TREATMENT OF MALIGNANTNEOPLASMS AND OTHER HYPERPROLIFERATIVE DISEASES” (priority 2002, published 2010).
# Where “and” joins values, the source holds several entries; their conditions need not be identical. Equal values may be shown once. Marks after values point to notes of the source that are not given here.
# B1: rhLF: recombinant human lactoferrin, a single chain metal binding glycoprotein (protein, UniProt P02788 20-710, looked up)
# Lactotransferrin: GRRRSVQWCAVSQPEATKCFQWQRNMRKVRGPPVSCIKRDSPIQCIQAIAENRADAVTLDGGFIYEAGLAPYKLRPVAAEVYGTERQPRTHYYAVAVVKKGGSFQLNELQGLKSCHTGLRRTAGWNVPIGTLRPFLNWTGPPEPIEAAVARFFSASCVPGADKGQFPNLCRLCAGTGENKCAFSSQEPYFSYSGAFKCLRDGAGDVAFIRESTVFEDLSDEAERDEYELLCPDNTRKPVDKFKDCHLARVPSHAVVARSVNGKEDAIWNLLRQAQEKFGKDKSPKFQLFGSPSGQKDLLFKDSAIGFSRVPPRIDSGLYLGSGYFTAIQNLRKSEEEVAARRARVVWCAVGEQELRKCNQWSGLSEGSVTCSSASTTEDCIALVLKGEADAMSLDGGYVYTAGKCGLVPVLAENYKSQQSSDPDPNCVDRPVEGYLAVAVVRRSDTSLTWNSVKGKKSCHTAVDRTAGWNIPMGLLFNQTGSCKFDEYFSQSCAPGSDPRSNLCALCIGDEQGENKCVPNSNERYYGYTGAFRCLAENAGDVAFVKDVTVLQNTDGNNNEAWAKDLKLADFALLCLDGKRKPVTEARSCHLAMAPNHAVVSRMDKVERLKQVLLHQQAKFGRNGSDCPDKFCLFQSETKNLLFNDNTECLARLHGKTTYEKYLGPQYVAGITNLKKCSTSPLLEACEFLRK
# Assays:
# [1] = test system: circulating lymphocytes; assay: Circulating lymphocytes following intratumoral rhLF in tumor-bearing mice; assay type: in vivo, C3H/HeJ mice
# Description: Normal C3H/HeJ mice were implanted with one of two mouse tumors following the methodology described in Example 17. Tumors used were SCCVII and RIF mouse tumor cell lines. Following establishment of the tumors in the mice, tumors were injected intratumorally daily for 4 days with 250 or 500 μg rhLF per dose or with vehicle control. Twenty four hours following the last intratumoral injection, animals were sacrificed and the blood examined for lymphocyte populations. The number of circulating lymphocytes were increased by 34% to 56% relative to the placebo treated control animals (Table 14).
# [2] = test system: YAC targets; assay: NK activity ex vivo after oral rhLF (LDH release test); assay type: in vivo, Balb/c naïve mice; settings: for % Cytotoxicity Final (NK activity): oral 300 mg/kg/day 3 days, spleen NK cells day 4
# Description: Balb/c naïve mice were treated orally with rhLF or placebo once a day for 3 days (see Table 4).
# (§1) On day 4, mice were sacrificed and spleens were collected. NK cells were separated using a magnetic bead cell sorting assay (MACS anti-NK-DX5) and counted. Cells were then tested in vitro for NK-activity against YAC targets using a lactate dehydrogenase (LDH) release test.
# as §1, with “Balb/c naïve mice were treated orally with rhLF or placebo once a” for “On”, “for 3 days. One day later (day 4),” for “4,”, “spleens” for “spleens were”
# [3] = test system: murine squamous carcinoma cell line (SCCVII); assay: SCCVII floor-of-mouth tumor growth, oral rhLF and/or radiotherapy; assay type: in vivo, C3H mice
# Description: A murine squamous carcinoma cell line (SCCVII) was injected into the floor of mouth through the neck skin of immunocompetent C3H mice (Day 0). […] Tumors were measured in three dimensions with calipers.
# Tumor-bearing mice were randomized into six groups receiving rhLF (200 mg/Kg) and/or radiotherapy as described below. RhLF (4 mg; 200 mg/kg) was administered by oral gavage once daily for 8 days on days 5 through 12. Radiotherapy was administered as single dose of 2 Gray given at the beginning (day 5) or at during (day 8) rhLF-therapy. Animals were sacrificed on day 14 post-treatment and the residual tumor masses were measured and processed for later additional analyses.
# [4] = blood, 24 h after 4 daily intratumoral doses of 250 or 500 μg, SCCVII or RIF tumors
molecule,measurement,setting,value
B1,increase in number of circulating lymphocytes relative to placebo,"[1]; across CD3+, CD4+, CD8+ populations",34% to 56
same,Number of Cells CD3+,[1]; [4],3291
same,Number of Cells CD4+,[1]; [4],2621
same,Number of Cells CD8+,[1]; [4],1054
same,"Increase with rhLF, CD3+ cells",[1]; relative to placebo,56%
same,"Increase with rhLF, CD4+ cells",[1]; relative to placebo,46%
same,"Increase with rhLF, CD8+ cells",[1]; relative to placebo,34%
same,relative increase of NK activity over placebo-treated animals,[2]; 30:1 E:T ratio,243%
same,% Cytotoxicity Increased over ctrl,"[2]; E:T ratio 3.7:1, versus placebo group",0%
same,% Cytotoxicity Increased over ctrl,"[2]; E:T ratio 7.5:1, versus placebo group",0%
same,% Cytotoxicity Increased over ctrl,"[2]; E:T ratio 15:1, versus placebo group",1.3%
same,% Cytotoxicity Increased over ctrl,"[2]; E:T ratio 30:1, versus placebo group",7** %
same,% Cytotoxicity Final (NK activity),[2]; E:T ratio 3.7:1,0%
same,% Cytotoxicity Final (NK activity),[2]; E:T ratio 7.5:1,0.44%
same,% Cytotoxicity Final (NK activity),[2]; E:T ratio 15:1,4.12%
same,% Cytotoxicity Final (NK activity),"[2]; E:T ratio 30:1, 300 mg/kg/day",10% and 9.81%
same,increase in TGI over monotherapy with radiation,[3]; both rhLF and radiation,15%
same,increase in TGI over monotherapy with rhLF,[3]; both rhLF and radiation,28%
same,Inhibition Relative to Placebo,[3]; rhLF 200 mg/kg oral days 5-12 plus 2 Gray on day 5,68%
same,Inhibition Relative to Placebo,[3]; rhLF 200 mg/kg oral days 5-12 plus 2 Gray on day 8,66%
same,Inhibition Relative to Placebo,"[3]; rhLF 200 mg/kg oral days 5-12 plus 2 Gray, both radiation schedules pooled",67%
same,Inhibition Relative to Placebo,"[3]; rhLF 200 mg/kg oral once daily days 5-12, no radiation",54%
